Assay results taken from patent US12227771B2, “Expression systems and methods of use thereof” (Janssen Pharmaceutica NV, priority 2019, dated 2025).

B1: TMEM132E: Transmembrane protein 132E, SEQ ID NO: 8, co-transfected cDNA clone (protein, listed as Homo sapiens)
chain: MAPGMSGRGGAALLCLSALLAHASGRSHPASPSPPGPQASPVLPVSYRLSHTRLAFFLREARPPSPAVANSSLQRSEPFVVFQTKELPVLNVSLGPFSTSQVVARELLQPSSTLDIPERLTVNWKVRAFIVRSHVPASQPVVQVLFYVAGRDWDDFGVTERLPCVRLHAFRDAREVKSSCRLSGGLATCLVRAELPLAWFGPPAPAAPPTARRKSPDGLEPEATGESQQAELYYTLHAPDASGGCGGSRRGAGPGVGARAESPTQHPLLRIGSISLFRPPPRRTLQEHRLDSNLMIRLPDRPLKPGEVLSILLYLAPNSSSPSSPSVEHFTLRVKAKKGVTLLGTKSRSGQWHVTSELLTGAKHSTATVDVAWAQSTPLPPREGQGPLEILQLDFEMENFTSQSVKRRIMWHIDYRGHGALPDLERAVTELTVIQRDVQAILPLAMDTEIINTAILTGRTVAIPVKVIAIEVNGLVLDISALVECESDNEDIIKVSSSCDYVFVSGKESRGSMNARVTFRYDVLNAPLEMTVWVPKLPLHIELSDARLSQVKGWRVPILPDRRSVRESEDEDEEEEERRQSASRGCTLQYQHATLQVFTQFHTTSSEGTDQVVTMLGPDWLVEVTDLVSDFMRVGDPRVAHMVDSSTLAGLEPGTTPFKVVSPLTEAVLGETLLTVTEEKVSITQLQAQVVASLALSLRPSPGSSHTILATTAAQQTLSFLKQEALLSLWLSYSDGTTAPLSLYSPRDYGLLVSSLDEHVATVTQDRAFPLVVAEAEGSGELLRAELTIAESCQKTKRKSVLATTPVGLRVHFGRDEEDPTYDYPGPSQPGPGGGEDEARGAGPPGSALPAPEAPGPGTASPVVPPTEDFLPLPTGFLQVPRGLTDLEIGMYALLGVFCLAILVFLINCIVFVLRYRHKRIPPEGQTSMDHSHHWVFLGNGQPLRVQGELSPPAGNPLETVPAFCHGDHHSSGSSQTSVQSQVHGRGDGSSGGSARDQAEDPASSPTSKRKRVKFTTFTTLPSEELAYDSVPAGEEDEEEEEDLGWGCPDVAGPTRPTAPPDLHNYMRRIKEIA
B2: TMEM100: Transmembrane protein 100, SEQ ID NO: 9, co-transfected cDNA clone (protein, listed as Homo sapiens)
chain: MTEEPIKEILGAPKAHMAATMEKSPKSEVVITTVPLVSEIQLMAATGGTELSCYRCIIPFAVVVFIAGIVVTAVAYSFNSHGSIISIFGLVVLSSGLFLLASSALCWKVRQRSKKAKRRESQTALVANQRSLFA

Target: T1, human α9α10 nAChR (Homo sapiens, UniProt Q9GZZ6+Q9UGM1)
T1 construct: expressed in transfected cells; host or cells: HEK293T
Test: FLIPR calcium assay of HEK293T cells co-transfected with α9α10 nAChR and cDNA clones, response evoked by 200 μM ACh
Type: cell-based
Settings: 200 μM ACh; for FLIPR Response (Fold/Baseline): 180 s; for functional expression of co-transfected α9α10 nAChR in cDNA library screen: HEK293T, 20,000 cDNA clones
Protocol: Human embryonic kidney 293T (HEK293T) cells were cultured in high glucose DMEM medium supplemented with 10% FBS, sodium pyruvate and penicillin/streptomycin. Prior to transfection, cells were seeded at ˜80-90% confluence in 384-well fluorescence imaging plate reader (FLIPR) assay plates. After a 4 hour (hr) incubation, wells of cells were individually co-transfected with human α9α10 nAChR plus one of 20,000 clones from cDNA libraries encoding most all human proteins (Origene Technologies; Rockville, Md.; Broad Institute; Cambridge, Mass.) using Fugene HD (Promega; Madison, Wis.) according to the manufacture's protocol. After two days incubation, cells were washed three times with assay buffer (137 mM NaCl, 4 mM KCl, 2 mM CaCl2, 1 mM MgCl2, 5 mM glucose, 10 mM HEPES pH7.4) and loaded with Calcium5 dye (Molecular Devices; San Jose, Calif.) and 1.25 mM probenecid for 1 hr at room temperature (RT). After three washes, the plates were placed in the FLIPR stage.
To further characterize the regulation of α9α10 nAChR expression, HEK293T cells were co-transfected with α9α10 nAChR and each of CHAT, TMIE, TMEM100, TMEM132A, TMEM132C, TMEM132D, TMEM132E and TNFRSF10A individually and in combination (Table 2).

[1] = HEK293T co-transfected with α9α10 nAChR + CHAT plus the named gene
[2] = HEK293T co-transfected with α9α10 nAChR plus the named gene

T1 sequence (Q9UGM1 23-479): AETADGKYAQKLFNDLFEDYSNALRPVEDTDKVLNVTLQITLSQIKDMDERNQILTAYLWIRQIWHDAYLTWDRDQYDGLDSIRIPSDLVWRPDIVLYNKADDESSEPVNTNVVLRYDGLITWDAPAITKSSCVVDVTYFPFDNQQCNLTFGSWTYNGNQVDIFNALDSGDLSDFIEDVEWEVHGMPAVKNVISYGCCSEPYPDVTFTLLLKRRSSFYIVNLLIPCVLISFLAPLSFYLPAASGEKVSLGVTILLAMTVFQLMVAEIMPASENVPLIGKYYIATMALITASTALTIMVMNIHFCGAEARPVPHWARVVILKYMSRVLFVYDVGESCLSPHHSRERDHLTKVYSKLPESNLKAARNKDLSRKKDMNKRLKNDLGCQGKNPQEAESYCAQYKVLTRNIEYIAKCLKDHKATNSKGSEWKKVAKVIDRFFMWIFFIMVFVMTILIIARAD
T1 sequence (Q9GZZ6 25-450): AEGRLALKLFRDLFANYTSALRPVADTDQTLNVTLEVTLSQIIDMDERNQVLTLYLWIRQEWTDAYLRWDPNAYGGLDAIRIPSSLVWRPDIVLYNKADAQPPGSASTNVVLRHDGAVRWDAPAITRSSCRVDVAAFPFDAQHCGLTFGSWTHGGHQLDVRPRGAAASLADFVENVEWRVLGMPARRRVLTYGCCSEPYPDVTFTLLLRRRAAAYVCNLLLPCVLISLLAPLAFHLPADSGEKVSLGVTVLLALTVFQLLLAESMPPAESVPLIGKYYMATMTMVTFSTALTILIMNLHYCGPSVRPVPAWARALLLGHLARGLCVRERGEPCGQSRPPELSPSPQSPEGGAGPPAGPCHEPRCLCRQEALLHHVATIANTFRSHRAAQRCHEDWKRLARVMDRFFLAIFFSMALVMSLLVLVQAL

| Molecule | FLIPR Response (Fold/Baseline) [1] | FLIPR Response (Fold/Baseline) [2] | functional expression of co-transfected α9α10 nAChR in cDNA library screen |
| --- | --- | --- | --- |
| B1 | 2.6 Fold/Baseline | 0.7 Fold/Baseline | enabled functional expression |
| B2 | 3.0 Fold/Baseline | 0.6 Fold/Baseline | enabled functional expression |
